Experiment in all cases: SPR, Biacore T200; target immobilized on CM5, His6-tagged Y variant injected; 1:1 Langmuir
On the technique in general: In SPR one partner is held on a chip, and binding of the other changes the refractive index at the surface.

Test [1] concerns the target T1, interleukin 6 (IL-6) (UniProt P05231 30-212).
T1 construct: also called b-IL-6
As to the method: (§1) Kinetic constants (kₐ and kd) and affinities (KD) were determined for Hiss-tagged Y variants using a Biacore T200 instrument (GE Healthcare). Target proteins C4, IL-6 and insulin, respectively, were immobilized in separate flow cells on the carboxylated dextran layer of different CM5 chip surfaces (GE Healthcare).
(§2) Immobilization was performed using amine coupling chemistry according to the manufacturer's protocol and PBS pH 7.4 supplemented with 0.1 Tween20 (PBST 0.1%) as running buffer. The ligand immobilization levels on the surfaces were 3280-8830 RU for C4, 495-1184 RU for IL-6, and 270-282 RU for insulin. One flow cell surface on each chip was activated and deactivated for use as blank during analyte injections. In the kinetic experiment, PBST 0.1% was used as running buffer at a flow rate of 30 μl/min. The analytes, i.e. Y variants, were each diluted in PBST 0.1 buffer at concentrations of 1000, 500, 100, 50 and 10 nM and injected for 5 min, followed by dissociation in running buffer for 3 min. After dissociation, the surfaces were regenerated with one injection of 30 μl 10 mM HCl. Kinetic constants were calculated from the sensorgrams using the Langmuir 1:1 model of Biacore T200 Evaluation software 2.0 (GE Healthcare).

The target of test [2] is T2, insulin (UniProt P01308 25-54; P01308 90-110, limits assumed).
T2 construct: Mature insulin has two chains (A and B) from one precursor; also called b-insulin
T2 sequence (P01308 25-54 limits assumed, form in doubt, chain 1 of 2): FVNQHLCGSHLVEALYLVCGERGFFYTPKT
T2 sequence (P01308 90-110 limits assumed, form in doubt, chain 2 of 2): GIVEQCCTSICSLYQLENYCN
The method, then: as §1, §2

Test [3] concerns the target T2, insulin. As to the method: as §1, §2
This is another data set of the same source.

The target in test [4] is T3, complement component 4 (C4) (UniProt P0C0L4 20-675; P0C0L4 680-1446; P0C0L4 1454-1744, limits assumed).
T3 construct: Natural C4 is a three-chain protein (alpha, beta, gamma) made from one precursor; Biotinylated for ELISA, amine-coupled to the chip for SPR; also called b-C4
T3 sequence (P0C0L4 20-675 limits assumed, chain 1 of 3): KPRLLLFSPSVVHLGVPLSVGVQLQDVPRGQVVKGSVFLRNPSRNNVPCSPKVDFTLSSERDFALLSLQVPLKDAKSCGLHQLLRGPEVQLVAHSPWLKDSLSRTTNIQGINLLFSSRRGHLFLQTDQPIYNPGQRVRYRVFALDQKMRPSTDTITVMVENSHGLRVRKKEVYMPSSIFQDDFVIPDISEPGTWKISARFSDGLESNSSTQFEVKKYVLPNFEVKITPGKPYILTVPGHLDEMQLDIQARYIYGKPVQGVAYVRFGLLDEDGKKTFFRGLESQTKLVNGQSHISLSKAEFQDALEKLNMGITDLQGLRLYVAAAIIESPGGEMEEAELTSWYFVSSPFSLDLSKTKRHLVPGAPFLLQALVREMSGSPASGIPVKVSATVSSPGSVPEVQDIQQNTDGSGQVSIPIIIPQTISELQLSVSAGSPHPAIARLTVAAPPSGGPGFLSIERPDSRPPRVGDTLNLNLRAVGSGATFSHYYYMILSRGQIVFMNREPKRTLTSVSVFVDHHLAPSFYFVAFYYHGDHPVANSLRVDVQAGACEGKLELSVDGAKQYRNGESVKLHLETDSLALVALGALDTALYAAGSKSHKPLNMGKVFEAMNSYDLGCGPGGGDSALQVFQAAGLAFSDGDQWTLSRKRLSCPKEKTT
T3 sequence (P0C0L4 680-1446 limits assumed, chain 2 of 3): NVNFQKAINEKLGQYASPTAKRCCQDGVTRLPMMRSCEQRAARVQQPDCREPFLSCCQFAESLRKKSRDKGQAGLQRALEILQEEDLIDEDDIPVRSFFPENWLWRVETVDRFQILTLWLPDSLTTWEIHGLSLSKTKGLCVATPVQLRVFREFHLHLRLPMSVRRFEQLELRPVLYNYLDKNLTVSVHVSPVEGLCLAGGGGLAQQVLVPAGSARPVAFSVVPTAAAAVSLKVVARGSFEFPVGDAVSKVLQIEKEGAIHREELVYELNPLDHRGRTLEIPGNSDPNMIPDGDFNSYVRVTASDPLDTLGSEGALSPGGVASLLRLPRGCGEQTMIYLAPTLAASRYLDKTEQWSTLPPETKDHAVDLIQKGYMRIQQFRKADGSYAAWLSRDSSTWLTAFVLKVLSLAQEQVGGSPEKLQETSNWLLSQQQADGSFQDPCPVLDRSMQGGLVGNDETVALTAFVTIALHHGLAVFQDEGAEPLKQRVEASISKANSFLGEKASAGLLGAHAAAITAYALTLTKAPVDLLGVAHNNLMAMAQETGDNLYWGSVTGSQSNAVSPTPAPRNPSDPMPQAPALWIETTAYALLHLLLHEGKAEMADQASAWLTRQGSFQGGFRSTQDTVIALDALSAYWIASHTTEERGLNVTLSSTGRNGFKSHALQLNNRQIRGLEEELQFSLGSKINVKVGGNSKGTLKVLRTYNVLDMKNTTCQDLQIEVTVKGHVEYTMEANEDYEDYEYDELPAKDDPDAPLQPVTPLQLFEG
T3 sequence (P0C0L4 1454-1744 limits assumed, chain 3 of 3): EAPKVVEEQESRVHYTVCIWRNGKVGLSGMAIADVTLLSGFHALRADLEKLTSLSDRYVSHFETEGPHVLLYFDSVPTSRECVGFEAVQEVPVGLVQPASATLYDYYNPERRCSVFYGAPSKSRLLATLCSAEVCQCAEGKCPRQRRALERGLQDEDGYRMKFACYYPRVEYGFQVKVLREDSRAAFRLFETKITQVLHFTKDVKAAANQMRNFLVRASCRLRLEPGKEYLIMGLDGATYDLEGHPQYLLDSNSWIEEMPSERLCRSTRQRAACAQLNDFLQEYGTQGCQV
The method, then: as §1, §2

Numbering of substitutions follows the chain as printed. Names may count otherwise. Read-outs that look alike come from different tables or passages of the source.

B1: Y02444 (designed binder)
chain: MGSSHHHHHHGSSLAEAKEAAIAELDSKGVGAVEIKQIQEALLVEIVQLLKQAILAVLPA
notes: From library Ylib002Naive.I; also called Y002444
Consider B1, for which, in test [1], the Kd (in general, the free concentration of one partner at which half of the binding sites on the other are occupied at equilibrium, for simple one-to-one binding) turned out to be 61 nM; the koff (commonly the rate constant with which the complex falls apart) was 0.0055 s⁻¹; the kon (in general, a measure of how fast the partners come together) came out at 90000 M⁻¹ s⁻¹.

B2: Y02697 (designed binder)
chain: B1 chain with I22L
notes: Y02444 with I9L
For the molecule B2, in test [1], the Kd came out at 150 nM, the koff was 0.009 s⁻¹ and the kon stood at 50000 M⁻¹ s⁻¹.

B3: Y02415 (designed binder)
chain: B1 chain with V33G, E34D, Q37D, E40D
notes: From library Ylib002Naive.I
B3: in test [1], the dissociation constant Kd is 160 nM, the koff worked out at 0.0015 s⁻¹ and the kon was 9700 M⁻¹ s⁻¹.

B4: Y02447 (designed binder)
chain: B1 chain with V33H, E34G, Q37E, E40D, L42I, V57A
notes: From library Ylib002Naive.I
In test [1], B4 had a Kd of 160 nM, a dissociation rate constant (koff) of 0.0017 s⁻¹ and a kon of 11000 M⁻¹ s⁻¹.

B5: Y02702 (designed binder)
chain: B1 chain with V33G, E34D, Q37D, Q39E, E40D
notes: Y02415 with Q26E
In the case of B5, in test [1], the Kd stood at 440 nM, the koff was 0.007 s⁻¹ and the kon came out at 16000 M⁻¹ s⁻¹.

B6: Y02700 (designed binder)
chain: B1 chain with I22L, V33G, E34D, Q37D, E40D
notes: Y02415 with I9L
As to B6, in test [1], the affinity, expressed as Kd, was 62 nM; the off-rate (koff) turned out to be 0.0025 s⁻¹; the kon came to 46000 M⁻¹ s⁻¹.

B7: Y02465 (designed binder)
chain: B1 chain with V33N, E34H, Q37A, E40H, L42Q, L43F
notes: From library Ylib002Naive.I
In test [1], B7 registered a Kd of 270 nM, a koff of 0.0021 s⁻¹ and a kon of 7500 M⁻¹ s⁻¹.

B8: Y02495 (designed binder)
chain: B1 chain with V33E, Q37E, E40G, L42M
notes: From library Ylib002Naive.I
Consider B8, for which, in test [1], the affinity, expressed as Kd, was 240 nM; the koff is 0.0017 s⁻¹; the kon is 7100 M⁻¹ s⁻¹.

B9: Y02701 (designed binder)
chain: B1 chain with K28Y, V33G, E34D, Q37D, E40D
notes: Y02415 with K15Y
As for B9, in test [1], the Kd amounted to 210 nM, the koff turned out to be 0.0036 s⁻¹ and the kon was 21000 M⁻¹ s⁻¹.

B10: Y02703 (designed binder)
chain: B1 chain with K28Y, Q39E
notes: Y02444 with K15Y + Q26E
In test [1], B10 returned a Kd of 120 nM, a koff of 0.0025 s⁻¹ and a kon of 21000 M⁻¹ s⁻¹.

B11: Y02699 (designed binder)
chain: B1 chain with Q39E
notes: Y02444 with Q26E
With B11, in test [1], the Kd came to 200 nM, the koff came to 0.0029 s⁻¹ and the kon was found to be 19000 M⁻¹ s⁻¹.

B12: Y02698 (designed binder)
chain: B1 chain with K28Y
notes: Y02444 with K15Y
For the molecule B12, in test [1], the Kd is 120 nM, the koff is 0.0033 s⁻¹ and the kon turned out to be 28000 M⁻¹ s⁻¹.

B13: Y02374 (designed binder)
chain: B1 chain with V33A, Q37R, E40A, L42E
notes: From library Ylib002Naive.I
On to B13, for which, in test [1], the Kd worked out at 120 nM, the koff was 0.0017 s⁻¹ and the kon was 14000 M⁻¹ s⁻¹.

B14: Y00032 (designed binder)
chain: MGSSHHHHHHGSSLAEAKEAAIAELDSKGVGAYQKSFIELAKSVEHVELLKEAILADLP
For the molecule B14, the Kd in test [2] and in test [3] was 63 nM in each case.

B15: Y00292 (designed binder)
chain: B14 chain with S36K, E48Q, E52Q
notes: Y00032 with S23K + E35Q + E39Q
In test [2], B15 gave a Kd of 450 nM.

B16: Y00295 (designed binder)
chain: B14 chain with K35I, S36K, E48Q, E52Q, A56K
notes: Y00270 with E35Q + E39Q + A43K
For the molecule B16, the Kd in test [2] was 580 nM.

B17: Y00293 (designed binder)
chain: B14 chain with K35I, S36K, E48Q, E52Q
notes: Y00270 with E35Q + E39Q; also called Y000293
Consider B17, for which the Kd in test [2] was found to be 490 nM.

B18: Y00294 (designed binder)
chain: B14 chain with K35I, S36K, E48Q, A56K
notes: Y00270 with E35Q + A43K
For B18, the Kd in test [2] amounted to 490 nM.

B19: Y00270 (designed binder)
chain: B14 chain with K35I, S36K
notes: Y00032 with K22I + S23K
With B19, the Kd in test [2] and in test [3] was 77 nM throughout.

B20: Y02358 (designed binder)
chain: MGSSHHHHHHGSSLAEAKEAAIAELDSKGVGADDIKLIQDAPSVEGVQEIKQFILAQLPA
notes: From library Ylib002Naive.I
As for B20, in test [4], the Kd was found to be 16 nM, the koff is 0.0014 s⁻¹ and the kon amounted to 90000 M⁻¹ s⁻¹.

B21: Y02303 (designed binder)
chain: MGSSHHHHHHGSSLAEAKEAAIAELDSKGVGAEEIKWIQNAWSVEGVQIMKQQILAELPA
notes: From library Ylib002Naive.I
Regarding B21, in test [4], the Kd was determined as 2200 nM, the koff came out at 0.21 s⁻¹ and the kon was 96000 M⁻¹ s⁻¹.

B22: Y02337 (designed binder)
chain: B21 chain with E33A, N40H, W42S, S43T, I49G, M50R
notes: From library Ylib002Naive.I
In test [4], B22 gave a dissociation constant Kd of 1900 nM, a koff of 0.81 s⁻¹ and a kon of 420000 M⁻¹ s⁻¹.

B23: Y02309 (designed binder)
chain: MGSSHHHHHHGSSLAEAKEAAIAELDSKGVGADLIKKIQKAESVEGVQFWKQEILATLPA
notes: From library Ylib002Naive.I
In test [4], B23 returned a Kd of 70 nM, a koff of 0.0025 s⁻¹ and a kon of 36000 M⁻¹ s⁻¹.

B24: Y00792 (designed binder)
chain: B23 chain with K40Q, E42S, T57Q
notes: From library Ylib002Naive.I
In test [4], B24 displayed a Kd of 62 nM, a koff of 0.0017 s⁻¹ and a kon of 27000 M⁻¹ s⁻¹.

B25: Y02330 (designed binder)
chain: B23 chain with D33E, K40H, T57Y
notes: From library Ylib002Naive.I
In test [4], B25 registered a Kd of 48 nM, a koff of 0.0046 s⁻¹ and a kon of 96000 M⁻¹ s⁻¹.

The record behind these values is patent US20210047372A1 (Affibody, published 2021).
